The values below come from the supplement of paper PMC5998384.

The test system of data set [1] is HeLa Kyoto. Put plainly: thermal stability score vs G1/S (z-score of summed log2 fold changes over temperatures); higher = more thermally stable than in G1/S.
Data set [2] relates to HeLa Kyoto. Put plainly: melting temperature (median over replicates), in situ; higher = more thermally stable.
The mark [3] stands for this setting: cell cycle stage: early G1 (4.5 h after nocodazole release).
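Throughout, for melting temperature (median over replicates), in situ: HeLa Kyoto cells synchronized by double thymidine or nocodazole block, proteins quantified by TMT10plex mass spectrometry, three independent biological replicates.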
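Throughout, for thermal stability score vs G1/S (z-score of summed log2 fold changes over temperatures): synchronized HeLa Kyoto cells, proteins quantified by TMT10plex mass spectrometry, three biological replicates, mitosis taken 0.5 h after nocodazole release, G1/S directly after double thymidine block.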

Sequence of MARK3 (chain, as listed by the source): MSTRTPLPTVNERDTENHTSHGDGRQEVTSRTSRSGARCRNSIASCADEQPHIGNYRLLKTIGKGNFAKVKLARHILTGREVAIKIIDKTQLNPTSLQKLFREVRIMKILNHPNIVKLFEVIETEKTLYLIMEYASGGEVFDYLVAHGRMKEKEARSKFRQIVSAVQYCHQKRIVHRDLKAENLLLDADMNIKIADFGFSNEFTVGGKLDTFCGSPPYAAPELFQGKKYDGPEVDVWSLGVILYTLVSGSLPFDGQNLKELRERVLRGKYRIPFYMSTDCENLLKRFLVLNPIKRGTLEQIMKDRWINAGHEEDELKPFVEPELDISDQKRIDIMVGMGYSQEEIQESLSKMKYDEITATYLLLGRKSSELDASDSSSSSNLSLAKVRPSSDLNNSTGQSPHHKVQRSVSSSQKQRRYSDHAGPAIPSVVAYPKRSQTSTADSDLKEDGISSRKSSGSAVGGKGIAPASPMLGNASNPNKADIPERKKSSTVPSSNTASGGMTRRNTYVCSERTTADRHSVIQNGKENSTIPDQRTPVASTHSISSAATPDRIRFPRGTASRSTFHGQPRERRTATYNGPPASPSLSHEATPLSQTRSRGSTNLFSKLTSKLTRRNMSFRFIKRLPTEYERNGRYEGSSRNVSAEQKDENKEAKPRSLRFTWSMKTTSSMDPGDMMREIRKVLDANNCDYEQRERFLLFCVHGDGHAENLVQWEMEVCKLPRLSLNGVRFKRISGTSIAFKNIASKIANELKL
Sequence of MGST2 (chain, as listed by the source): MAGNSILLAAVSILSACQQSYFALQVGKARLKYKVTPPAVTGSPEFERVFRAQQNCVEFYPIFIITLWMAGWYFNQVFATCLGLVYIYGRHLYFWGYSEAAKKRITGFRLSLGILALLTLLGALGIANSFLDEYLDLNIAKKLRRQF

Take “MAAPLVLVLVVAVTVRAALFRSSLAEFISERVEVVSPLSSWKRVVEGLSLLDLGVSPYSGAVFHETPLIIYLFHFLIDYAELVFMITDALTAIALYFAIQDFNKVVFKKQKLLLELDQYAPDVAELIRTPMEMRYIPLKVALFYLLNPYTILSCVAKSTCAINNTLIAFFILTTIKGSAFLSAIFLALATYQSLYPLTLFVPGLLYLLQRQYIPVKMKSKAFWIFSWEYAMMYVGSLVVIICLSFFLLSSWDFIPAVYGFILSVPDLTPNIGLFWYFFAEMFEHFSLFFVCVFQINVFFYTIPLAIKLKEHPIFFMFIQIAVIAIFKSYPTVGDVALYMAFFPVWNHLYRFLRNIFVLTCIIIVCSLLFPVLWHLWIYAGSANSNFFYAITLTFNVGQILLISDYFYAFLRREYYLTHGLYLTAKDGTEAMLVLK [PIGU]”: the values for the thermal stability score with HeLa Kyoto [1] (setting [3]) and with HeLa Kyoto [1] (cell cycle stage: mitosis) were 0.038 and -0.34, respectively.
As for “MAKVSVLNVAVLENPSPFHSPFRFEISFECSEALADDLEWKIIYVGSAESEEFDQILDSVLVGPVPAGRHMFVFQADAPNPSLIPETDAVGVTVVLITCTYHGQEFIRVGYYVNNEYLNPELRENPPMKPDFSQLQRNILASNPRVTRFHINWDNNMDRLEAIETQDPSLGCGLPLNCTPIKGLGLPGCIPGLLPENSMDCI [ASF1B]”, the results for the thermal stability score in the data set with HeLa Kyoto [1] (setting [3]) and with HeLa Kyoto [1] (cell cycle stage: mitosis) were -3.88 and -1.16, respectively.
As to MARK3, the figures for the thermal stability score in the data set with HeLa Kyoto [1] (setting [3]) and in the data set on HeLa Kyoto [1] (cell cycle stage: mitosis) were -0.371 and 0.161, respectively.
As for “MARKALKLASWTSMALAASGIYFYSNKYLDPNDFGAVRVGRAVATTAVISYDYLTSLKSVPYGSEEYLQLRSKSWPVFLQVHLRSARRLCELCCANRGTFIKVGQHLGALDYLLPEEYTSTLKVLHSQAPQSSMQEIRQVIREDLGKEIHDLFQSFDDTPLGTASLAQVHKAVLHDGRTVAVKVQHPKVRAQSSKDILLMEVLVLAVKQLFPEFEFMWLVDEAKKNLPLELDFLNEGRNAEKVSQMLRHFDFLKVPRIHWDLSTERVLLMEFVDGGQVNDRDYMERNKIDVNEISRHLGKMYSEMIFVNGFVHCDPHPGNVLVRKHPGTGKAEIVLLDHGLYQMLTEEFRLNYCHLWQSLIWTDMKRVKEYSQRLGAGDLYPLFACMLTARSWDSVNRGISQAPVTATEDLEIRNNAANYLPQISHLLNHVPRQMLLILKTNDLLRGIEAALGTRASASSFLNMSRCCIRALAEHKKKNTCSFFRRTQISFSEAFNLWQINLHELILRVKGLKLADRVLALICWLFPAPL [ADCK1]”, the thermal stability score with HeLa Kyoto [1] (setting [3]) was 0.277; in the data set on HeLa Kyoto [1] (cell cycle stage: mitosis), -0.197.
Consider “MAVPGCNKDSVRAGCKKCGYPGHLTFECRNFLRVDPKRDIVLDVSSTSSEDSDEENEELNKLQALQEKRINEEEEKKKEKSKEKIKLKKKRKRSYSSSSTEEDTSKQKKQKYQKKEKKKEKKSKSKKGKHHKKEKKKRKKEKHSSTPNSSEFSRK [SREK1IP1]”, for which the thermal stability score in the data set with HeLa Kyoto [1] (setting [3]) was -0.6; with HeLa Kyoto [1] (cell cycle stage: mitosis), -4.29.
For the substance “MELIQDTSRPPLEYVKGVPLIKYFAEALGPLQSFQARPDDLLINTYPKSGTTWVSQILDMIYQGGDLEKCNRAPIYVRVPFLEVNDPGEPSGLETLKDTPPPRLIKSHLPLALLPQTLLDQKVKVVYVARNPKDVAVSYYHFHRMEKAHPEPGTWDSFLEKFMAGEVSYGSWYQHVQEWWELSRTHPVLYLFYEDMKENPKREIQKILEFVGRSLPEETMDFMVQHTSFKEMKKNPMTNYTTVPQELMDHSISPFMRKGMAGDWKTTFTVAQNERFDADYAEKMAGCSLSFRSEL [SULT1A4]”, the melting temperature was 48.5 °C in the data set with HeLa Kyoto [2] (cell cycle stage: G1/S) and 49.2 °C with HeLa Kyoto [2] (cell cycle stage: mitosis).
In the data set on HeLa Kyoto [2] (cell cycle stage: G1/S), “MFAKGKGSAVPSDGQAREKLALYVYEYLLHVGAQKSAQTFLSEIRWEKNITLGEPPGFLHSWWCVFWDLYCAAPERRDTCEHSSEAKAFHDYSAAAAPSPVLGNIPPNDGMPGGPIPPGFFQGPPGSQPSPHAQPPPHNPSSMMGPHSQPFMSPRYAGGPRPPIRMGNQPPGGVPGTQPLLPNSMDPTRQQGHPNMGGSMQRMNPPRGMGPMGPGPQNYGSGMRPPPNSLGPAMPGINMGPGAGRPWPNPNSANSIPYSSSSPGTYVGPPGGGGPPGTPIMPSPADSTNSSDNIYTMINPVPPGGSRSNFPMGPGSDGPMGGMGGMEPHHMNGSLGSGDIDGLPKNSPNNISGISNPPGTPRDDGELGGNFLHSFQNDNYSPSMTMSV [SSBP3]” showed a melting temperature of 52.4 °C.
“MGDEKDSWKVKTLDEILQEKKRRKEQEEKAEIKRLKNSDDRDSKRDSLEEGELRDHRMEITIRNSPYRREDSMEDRGEEDDSLAIKPPQQMSRKEKAHHRKDEKRKEKRRHRSHSAEGGKHARVKEKEREHERRKRHREEQDKARREWERQKRREMAREHSRRERDRLEQLERKRERERKMREQQKEQREQKERERRAEERRKEREARREVSAHHRTMREDYSDKVKASHWSRSPPRPPRERFELGDGRKPGEARPAPAQKPAQLKEEKMEERDLLSDLQDISDSERKTSSAESSSAESGSGSEEEEEEEEEEEEEGSTSEESEEEEEEEEEEEEETGSNSEEASEQSAEEVSEEEMSEDEERENENHLLVVPESRFDRDSGESEEAEEEVGEGTPQSSALTEGDYVPDSPALSPIELKQELPKYLPALQGCRSVEEFQCLNRIEEGTYGVVYRAKDKKTDEIVALKRLKMEKEKEGFPITSLREINTILKAQHPNIVTVREIVVGSNMDKIYIVMNYVEHDLKSLMETMKQPFLPGEVKTLMIQLLRGVKHLHDNWILHRDLKTSNLLLSHAGILKVGDFGLAREYGSPLKAYTPVVVTLWYRAPELLLGAKEYSTAVDMWSVGCIFGELLTQKPLFPGKSEIDQINKVFKDLGTPSEKIWPGYSELPAVKKMTFSEHPYNNLRKRFGALLSDQGFDLMNKFLTYFPGRRISAEDGLKHEYFRETPLPIDPSMFPTWPAKSEQQRVKRGTSPRPPEGGLGYSQLGDDDLKETGFHLTTTNQGASAAGPGFSLKF [CDK11B]”: the melting temperature in the data set with HeLa Kyoto [2] (cell cycle stage: G1/S) is 46.5 °C; with HeLa Kyoto [2] (cell cycle stage: mitosis), 50.3 °C.
As to “MGLELFLDLVSQPSRAVYIFAKKNGIPLELRTVDLVKGQHKSKEFLQINSLGKLPTLKDGDFILTESSAILIYLSCKYQTPDHWYPSDLQARARVHEYLGWHADCIRGTFGIPLWVQVLGPLIGVQVPKEKVERNRTAMDQALQWLEDKFLGDRPFLAGQQVTLADLMALEELMQPVALGYELFEGRPRLAAWRGRVEAFLGAELCQEAHSIILSILEQAAKKTLPTPSPEAYQAMLLRIARIP [GSTT2]”, the results for the melting temperature in the data set with HeLa Kyoto [2] (cell cycle stage: G1/S) and with HeLa Kyoto [2] (cell cycle stage: mitosis) were 54.9 °C and 55.1 °C, respectively.
The substance MGST2 displayed a melting temperature with HeLa Kyoto [2] (cell cycle stage: G1/S) of 54.3 °C.
Take “MLLSIGMLMLSATQVYTILTVQLFAFLNLLPVEADILAYNFENASQTFDDLPARFGYRLPAEGLKGFLINSKPENACEPIVPPPVKDNSSGTFIVLIRRLDCNFDIKVLNAQRAGYKAAIVHNVDSDDLISMGSNDIEVLKKIDIPSVFIGESSANSLKDEFTYEKGGHLILVPEFSLPLEYYLIPFLIIVGICLILIVIFMITKFVQDRHRARRNRLRKDQLKKLPVHKFKKGDEYDVCAICLDEYEDGDKLRILPCSHAYHCKCVDPWLTKTKKTCPVCKQKVVPSQGDSDSDTDSSQEENEVTEHTPLLRPLASVSAQSFGALSESRSHQNMTESSDYEEDDNEDTDSSDAENEINEHDVVVQLQPNGERDYNIANTV [RNF13]”: the melting temperature was found to be 57.4 °C with HeLa Kyoto [2] (cell cycle stage: G1/S) and 64.3 °C with HeLa Kyoto [2] (cell cycle stage: mitosis).
“MRSGEELDGFEGEASSTSMISGASSPYQPTTEPVSQRRGLAGLRCDPDYLRGALGRLKVAQVILALIAFICIETIMACSPCEGLYFFEFVSCSAFVVTGVLLIMFSLNLHMRIPQINWNLTDLVNTGLSAFLFFIASIVLAALNHRAGAEIAAVIFGFLATAAYAVNTFLAVQKWRVSVRQQSTNDYIRARTESRDVDSRPEIQRLDTFSYSTNVTVRKKSPTNLLSLNHWQLA [CMTM4]” came in with a melting temperature in the data set with HeLa Kyoto [2] (cell cycle stage: G1/S) of 58.1 °C.
With “MSLCSPTHSAEMSLFLQGPEEMLPLSSEGSEMGSEKEQSPEPHLPEEGEGGKPWRVDDSEGSWIPPGEKEHGQESLSDELQETHPKKPWQKVTVRARELGDPIAHPRHEADEKPFICAQCGKTFNNTSNLRTHQRIHTGEKPYKCSECGKSFSRSSNRIRHERIHLEEKHYKCPKCQESFRRRSDLTTHQQDHLGKRPYRCDICGKSFSQSATLAVHHRTHLEPAPYICCECGKSFSNSSSFGVHHRTHTGERPYECTECGRTFSDISNFGAHQRTHRGEKPYRCTVCGKHFSRSSNLIRHQKTHLGEQAGKDSS [ZNF691]”, the melting temperature was 54.9 °C in the data set on HeLa Kyoto [2] (cell cycle stage: G1/S) and 53.1 °C in the data set on HeLa Kyoto [2] (cell cycle stage: mitosis).
In the case of “MSLPPEKASELKQLIHQQLSKMDVHGRIREILAETIREELAPDQQHLSTEDLIKALRRRGIIDDVMKELNFVTDSVEQELPSSPKQPICFDRQSTLKKTNIDPTRRYLYLQVLGGKAFLEHLQEPEPLPGQVCSTFTLCLHYRNQRFRSKPVPCACEPDFHDGFLLEVHRESLGDGTRMADSTTMLSISDPIHMVLIKTDIFGETTLVASYFLEWRSVLGSENGVTSLTVELMGVGTESKVSVGILNIKLEMYPPLNQTLSQEVVNTQLALERQKTAEKERLFLVYAKQWWREYLQIRPSHNSRLVKIFAQDENGINRPVCSYVKPLRAGRLLDTPRQAARFVNVLGYERAPVIGGGGKQEQWCTLLAFLCRNKGDCEDHANLLCSLLLGYGLEAFVCVGTKAKGVPHAWVMTCGTDGAITFWESLTGHRYIHKPTNPDEPPVAEQPKPLYPYRTIGCVFNHQMFLGNCQPSDAVETCVFDLNDESKWKPMSEEAIKSVCAPGATTSLPPFPPLCASTIDASVTSNEIEMQLRLLVSEHRKDLGLTTVWEDQLSYLLSPALASYEFERTTSISAGNEEFQDAIRRAVPDGHTFKGFPIHFVYRNARRAFATCLRSPFCEEIICCRGDQVRLAVRVRVFTYPESACAVWIMFACKYRSVL [CEP76]”, the melting temperature in the data set on HeLa Kyoto [2] (cell cycle stage: G1/S) amounted to 53.7 °C.
On to “MSLRCGDAARTLGPRVFGRYFCSPVRPLSSLPDKKKELLQNGPDLQDFVSGDLADRSTWDEYKGNLKRQKGERLRLPPWLKTEIPMGKNYNKLKNTLRNLNLHTVCEEARCPNIGECWGGGEYATATATIMLMGDTCTRGCRFCSVKTARNPPPLDASEPYNTAKAIAEWGLDYVVLTSVDRDDMPDGGAEHIAKTVSYLKERNPKILVECLTPDFRGDLKAIEKVALSGLDVYAHNVETVPELQSKVRDPRANFDQSLRVLKHAKKVQPDVISKTSIMLGLGENDEQVYATMKALREADVDCLTLGQYMQPTRRHLKVEEYITPEKFKYWEKVGNELGFHYTASGPLVRSSYKAGEFFLKNLVAKRKTKDL [LIAS]”, for which the melting temperature came out at 52.1 °C with HeLa Kyoto [2] (cell cycle stage: G1/S) and 53.4 °C in the data set with HeLa Kyoto [2] (cell cycle stage: mitosis).
Consider “MSSHKGSVVAQGNGAPASNREADTVELAELGPLLEEKGKRVIANPPKAEEEQTCPVPQEEEEEVRVLTLPLQAHHAMEKMEEFVYKVWEGRWRVIPYDVLPDWLKDNDYLLHGHRPPMPSFRACFKSIFRIHTETGNIWTHLLGFVLFLFLGILTMLRPNMYFMAPLQEKVVFGMFFLGAVLCLSFSWLFHTVYCHSEKVSRTFSKLDYSGIALLIMGSFVPWLYYSFYCSPQPRLIYLSIVCVLGISAIIVAQWDRFATPKHRQTRAGVFLGLGLSGVVPTMHFTIAEGFVKATTVGQMGWFFLMAVMYITGAGLYAARIPERFFPGKFDIWFQSHQIFHVLVVAAAFVHFYGVSNLQEFRYGLEGGCTDDTLL [ADIPOR1]”, for which, in the data set with HeLa Kyoto [2] (cell cycle stage: G1/S), the melting temperature is 55.6 °C.
For “MWTLGRRAVAGLLASPSPAQAQTLTRVPRPAELAPLCGRRGLRTDIDATCTPRRASSNQRGLNQIWNVKKQSVYLMNLRKSGTLGHPGSLDETTYERLAEETLDSLAEFFEDLADKPYTFEDYDVSFGSGVLTVKLGGDLGTYVINKQTPNKQIWLSSPSSGPKRYDWTGKNWVYSHDGVSLHELLAAELTKALKTKLDLSSLAYSGKDA [FXN]”, the melting temperature in the data set with HeLa Kyoto [2] (cell cycle stage: G1/S) came out at 53 °C; in the data set with HeLa Kyoto [2] (cell cycle stage: mitosis) it was 53.3 °C.
As for RAPGEF6, the melting temperature in the data set on HeLa Kyoto [2] (cell cycle stage: G1/S) is 47.3 °C; with HeLa Kyoto [2] (cell cycle stage: mitosis), 48.9 °C.
